# Results from patent US7176293B1, “Compositions and methods to enhance sensitivity of cancer cells to mitotic stress” (The Wistar Institute of Anatomy and Biology, priority 1999, dated 2007).
# B1: wild-type Chfr: 664 amino acid human checkpoint protein with FHA and ring finger domains, SEQ ID NO: 2; HA-tagged when expressed in cells (protein, listed as Homo sapiens)
# chain: MERPEEGKQSPPPQPWGRLLRLGAEEGEPHVLLRKREWTIGRRRGCDLSFPSNKLVSGDHCRIVVDEKSGQVTLEDTSTSGTVINKLKVVKKQTCPLQTGDVIYLVYRKNEPEHNVAYLYESLSEKQGMTQESFEANKENVFHGTKDTSGAGAGRGADPRVPPSSPATQVCFEEPQPSTSTSDLFPTASASSTEPSPAGRERSSSCGSGGGGISPKGSGPSVASDEVSSFASALPDRKTASFSSLEPQDQEDLEPVKKKMRGDGDLDLNGQLLVAQPRRNAQTVHEDVRAAAGKPDKMEETLTCIICQDLLHDCVSLQPCMHTFCAACYSGWMERSSLCPTCRCPVERICKNHILNNLVEAYLIQHPDKSRSEEDVQSMDARNKITQDMLQPKVRRSFSDEEGSSEDLLELSDVDSESSDISQPYVVCRQCPEYRRQAAQPPHCPAPEGEPGAPQALGDAPSTSVSLTTAVQDYVCPLQGSHALCTCCFQPMPDRRAEREQDPRVAPQQCAVCLQPFCHLYWGCTRTGCYGCLAPFCELNLGDKCLDGVLNNNSYESDILKNYLATRGLTWKNMLTESLVALQRGVFLLSDYRVTGDTVLCYCCGLRSFRELTYQYRQNIPASELPVAVTSRPDCYWGRNCRTQVKAHHAMKFNHICEQTRFKN
# modifications: HA tag when expressed
# notes: HA-tagged when expressed in cells
# What was measured:
# Assay type in all cases: cell-based, human
# [1] = tested on: DLD1 cells; assay: Entry into metaphase of synchronized DLD1-neo and DLD1-chfr cells under mitotic stress; conditions: synchronized DLD1-chfr vs DLD1-neo; drug added 12 hours after release from the G1-S block
# Experimental: All cancer cells were grown in DMEM supplemented with glutamine, penicillin, streptomycin and 10% fetal bovine serum (Life Sciences). Normal human epidermal keratinocytes and osteoblasts were grown in KGM2 and OGM media, respectively (Clonetics). The cells were examined either non-synchronized or synchronized. For synchronization, the cells were treated with 2 mM thymidine for 16 hours, then with 0.25 mM thymidine/deoxycytidine for 9 hours, and then with 0.5 μg/ml aphidicolin for 20–24 hours. The cells were washed three times with PBS between each step [Janss et al., 1998, Exp. Cell Res., 243:29–38]. To induce mitotic stress, synchronized or non-synchronized cells were exposed to 0.5 μg/ml nocodazole, 5 μM of the TAXOL™ drug or 0.5 μg/ml colcemid. Cells were grown on 8-well culture slides coated with human fibronectin (Becton Dickinson) and were examined as either non-synchronized or synchronized cells. […] The slides were sealed with coverslips using Fluoromount-G (Upstate Biotechnology) and visualized with a fluorescence microscope (Leica). […] Progression through the cell cycle was monitored by measuring the mitotic index and by flow cytometric analysis of the DNA content of the cells.
# [2] = tested on: DLD1 and U20S cells; assay: Mitotic index of stably transfected DLD1 and U20S cells in response to nocodazole
# Experimental: (§1) Stable transfectants were prepared by transfecting DLD1 or U20S cells with 5 μg pSV2-HAchfr or pSV2-HAchfr-M580, or 5 μg pSV2 vector without insert and 1 μg pSV7neo plasmid [Wieczorek et al., supra] using Fugene-6 transfection reagent (Roche). Stably transfected cells were selected with G418. For transient expression, DLD1 or U20S cells were transfected with 5 μg pSV2-HAchfr or pSV2-HAchfrM580 or pSV2 plasmid without insert and 2 μg of a plasmid expressing green fluorescent protein using Fugene-6. SAOS2 cells were transfected as described above, except that the plasmids expressing Chfr were cotransfected with a plasmid expressing green fluorescent protein (GFP).
# (§2) Cells were grown on 8-well culture slides coated with human fibronectin (Becton Dickinson) and were examined as either non-synchronized or synchronized cells. […] The slides were sealed with coverslips using Fluoromount-G (Upstate Biotechnology) and visualized with a fluorescence microscope (Leica). […]
# To determine whether Chfr accounted for the different response, DLD1 and U20S cells were prepared to stably express HA-tagged wild-type Chfr or Chfr with the […] substitution (M580) or just the neo selectable marker. […] Furthermore, the different effects of wild-type Chfr and Chfr-M580 could not be attributed to differences in protein expression, as determined by immunoblotting. […]
# [3] = tested on: SAOS2 cells; assay: Mitotic index of transiently-transfected SAOS2 cells exposed to the TAXOL drug; conditions: SAOS2, TAXOL drug added 36 hours after transfection; 12, 14 and 16 hour timepoints
# Experimental: as §1, §2
# Chfr-ΔFHA, a Chfr protein with deletion of residues 2–142 encompassing the FHA domain, was identified as a dominant negative mutant by studying its function in DLD 1 cells. […] 36 hours later, mitotic stress was induced by exposure to the TAXOL™ drug and the mitotic index was determined 8 to 16 hours late. Protein levels were determined by immunoblotting with an antibody that recognizes the N-terminal HA tag of the expressed Chfr proteins. […]
# [4] = tested on: DLD1 cells; assay: Mitotic index of unsynchronized DLD1 cells stably expressing Chfr or Chfr-A325, exposed to nocodazole; conditions: stably transfected unsynchronized DLD1 cells
# Description: To determine whether ubiquitin-protein ligase activity is required for checkpoint function, the Chfr mutant that substitutes Cys325 of the ring finger with Ala was stably-expressed in DLD1 cells. These cells were then exposed to mitotic stress and examined for entry into metaphase. The mitotic index of unsynchronized DLD1 cells exposed to nocodazole is high, indicating the absence of a checkpoint that would delay entry into metaphase in response to mitotic stress.
molecule,measurement,setting,value
B1,entry into metaphase in response to mitotic stress,[1],delays entry into metaphase
same,mitotic index in response to nocodazole,[2],low mitotic index
same,effect on mitotic index compared to cells transfected with empty vector,[3],no effect
same,mitotic index after exposure to nocodazole,[4],low mitotic index
